This is an account of results in US20110262447A1 (RAMOT AT TEL AVIV UNIVERSITY, published 2011).

Changes are numbered by the printed parent chain.

Assay [1] has as its target T1, Bovine Serum Albumin (bovine, UniProt P02769 25-607).
T1 construct: also called BSA
Put plainly: ELISA, group 5, BSA. A general note: ELISA stands for enzyme-linked immunosorbent assay.

In assay [2] the target is Streptavidin (UniProt P22629 37-163). Put plainly: ELISA, group 6, Streptavidin.
In assay [3] the target is multiple antigen peptide presenting amino acids 144-153 of the human prion protein (MAP-PrP […]) (human). Put plainly: ELISA, group 3, MAP-PrP.

Sequence of Streptavidin (P22629 37-163 limits assumed): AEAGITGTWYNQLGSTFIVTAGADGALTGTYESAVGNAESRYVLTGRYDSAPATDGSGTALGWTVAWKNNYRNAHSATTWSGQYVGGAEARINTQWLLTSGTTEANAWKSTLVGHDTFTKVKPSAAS
T1 sequence (P02769 25-607 limits assumed): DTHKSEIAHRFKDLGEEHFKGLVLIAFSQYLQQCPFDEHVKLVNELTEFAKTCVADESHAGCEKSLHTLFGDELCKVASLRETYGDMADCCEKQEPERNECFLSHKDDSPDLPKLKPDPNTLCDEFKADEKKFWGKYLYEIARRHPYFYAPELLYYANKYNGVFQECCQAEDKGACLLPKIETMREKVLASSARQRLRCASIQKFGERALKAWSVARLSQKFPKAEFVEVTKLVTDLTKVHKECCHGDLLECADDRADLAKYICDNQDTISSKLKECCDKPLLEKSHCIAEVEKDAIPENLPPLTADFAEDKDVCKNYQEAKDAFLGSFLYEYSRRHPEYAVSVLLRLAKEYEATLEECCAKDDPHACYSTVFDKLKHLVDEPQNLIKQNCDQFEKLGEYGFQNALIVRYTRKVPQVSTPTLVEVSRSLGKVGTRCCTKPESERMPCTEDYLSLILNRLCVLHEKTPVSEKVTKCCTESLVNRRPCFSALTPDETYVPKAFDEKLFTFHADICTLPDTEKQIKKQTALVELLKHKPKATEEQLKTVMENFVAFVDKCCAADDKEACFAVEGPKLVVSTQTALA

B1: A4 scFv (scFv)
scFv: VQLLESGGGLVQPGGSLRLSCAASGFTFSGYWMHWVRQAPGKGLEWVSEISGSGDSTHYGDSVKGRFTISRDNSKNTLYLQMNSLRAEDTAVYYCARGRNGSLDYWGQGTLVTVSSGSAGGGGSGGGGSGGGGSDIVLTQPPSASGTPGQRVTISCTGNSSNIGAGYDVHWYQQLPGKAPKLLIYSNNQRPSGVPDRFSGSKSGTSASLAISGLRSEDEADYYCAAWDDSLSSVVFGGGTKLTV
As for B1, the binding result in assay [1] and in assay [2] was “no binding (tested: not given on the sheet)” each time.

B2: B6 scFv (scFv)
scFv: B1 scFv with N159S, S161A, S186D, N188D, Q189K, S230R, S233G, L242V
For B2, the binding result in assay [1], in assay [3] and in assay [2] was “no binding (tested: not given on the sheet)” throughout.

B3: F2 scFv (scFv)
scFv: B1 scFv with T157S, N159T, G166D, S186D, Q189K, P195S, D229S, K241Q
Regarding B3, the binding result in assay [3] and in assay [2] was “no binding (tested: not given on the sheet)” throughout.
